Measured values reported in PMC9151557.

Molecular target: recombinant protein fibronectin-collagen peptide (FCP) (human)
Experiment: SPR; OpenSPR (Nicoya); FCP fixed on an NTA sensor chip by capture coupling, integrin β3 injected sequentially; PBS running buffer, 25 °C; binding and dissociation 250 s each; regeneration with hydrochloric acid pH 2.0; one-to-one diffusion-corrected model, TraceDrawer (the discussion says integrin β3 was the captured one)

Sequence of integrin β3 (P05106 27-718): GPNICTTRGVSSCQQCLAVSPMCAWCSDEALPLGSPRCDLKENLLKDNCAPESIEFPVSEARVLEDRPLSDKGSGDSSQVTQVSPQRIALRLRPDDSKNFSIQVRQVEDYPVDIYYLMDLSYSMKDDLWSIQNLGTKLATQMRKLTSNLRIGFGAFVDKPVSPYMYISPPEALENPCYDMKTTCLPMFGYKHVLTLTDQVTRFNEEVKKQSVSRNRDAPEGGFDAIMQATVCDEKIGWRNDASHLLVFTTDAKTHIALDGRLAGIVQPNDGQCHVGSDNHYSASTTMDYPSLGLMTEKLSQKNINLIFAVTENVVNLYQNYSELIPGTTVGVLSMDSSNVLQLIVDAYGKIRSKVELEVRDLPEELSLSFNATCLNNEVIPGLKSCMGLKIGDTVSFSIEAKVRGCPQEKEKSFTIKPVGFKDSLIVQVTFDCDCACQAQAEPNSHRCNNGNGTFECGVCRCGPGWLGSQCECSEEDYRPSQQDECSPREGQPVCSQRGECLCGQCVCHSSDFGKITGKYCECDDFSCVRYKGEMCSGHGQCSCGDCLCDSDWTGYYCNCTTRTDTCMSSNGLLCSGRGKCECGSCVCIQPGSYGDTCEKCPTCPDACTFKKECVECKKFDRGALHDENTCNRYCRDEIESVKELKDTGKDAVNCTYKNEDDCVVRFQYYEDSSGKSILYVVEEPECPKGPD

## integrin β3 (from UniProt P05106 27-718) (receptor)
  Kd: 53.7 nM
